According to US8883734B2, “Proteasome-activating anti-aging peptides and compositions containing same” (ISP Investments Inc., priority 2009, dated 2014):
Ends that are not written are not given here.

Experiments:
20S proteasome = biological target: T1, 20S proteasome (Homo sapiens, UniProt P28072+P28074+Q99436); assay: Enzymatic activity of 20S proteasome on aged keratinocytes maintained in culture (AMC fluorogenic substrates); type: cell-based; conditions: 1% peptide in medium, renewed 3 times per week, 15 days culture
T1 construct: endogenous in cells; host or cells: experimentally aged normal human keratinocytes (NHK); crude cell lysate
Protocol: Experimentally aged keratinocytes maintained in culture for 15 days are treated with 1% of peptide SEQ ID No. 6. The enzymatic activities of 20S proteasome are then studied. In fact, 20S proteasome is the subunit responsible for enzymatic hydrolysis. Three enzymatic activities may be studied: Trypsin-like, chymotrypsin-like and peptidylglutamyl-peptide hydrolase (PGPH) activity. We are proposing to study these activities by a specific enzymatic assay of each activity.
The aged keratinocytes are maintained in culture for 15 days. The cell treatment is carried out by adding a solution at 1% of peptide SEQ ID No. 6 directly into the medium, renewed 3 times per week for the time of the experiment. The assay of each activity was carried out by using specific substrates labeled by a fluorescent compound 7-amido-4-methylcoumarin (AMC). After cleavage, the AMC excitation wavelength is 350 nm, the fluorescence is read at 440 nm. The fluorescence intensity is proportional to the quantity of fluorochrome obtained and consequently, this quantity is proportional to the quantity of hydrolyzed substrate.
The synthetic peptide Boc-Leu-Arg-Arg-AMC is specific for trypsin activity.
The synthetic peptide Suc-Leu-Leu-Val-Tyr-AMC (SEQ ID NO: 8) is specific for chymotrypsin activity.
The synthetic peptide Z-Leu-Leu-Glu-AMC is specific for peptidylglutamyl-peptide hydrolase activity.
The cells are detached from the support in an extraction buffer. Afterwards, the cells are sonicated for 1 minute at 4° C., and then centrifuged at 15000 g for 30 minutes at 4° C. The protein assay is carried out by the BCA kit (Pierce). After incubation of the cellular lysate with the synthetic substrate specific for the activity studied, fluorescence is read with the Synergy spectrophotometer (BIOTEK, Vermont, USA) at 440 nm.

beta-galactosidase = conditions: 1% peptide, 3 times per week; keratinocytes aged 20 days in culture; X-gal staining
Protocol: These cells are maintained in culture in a special keratinocyte-SFM medium (Invitrogen) at 37° C. under a humidified atmosphere of 5% CO2. Aged NHK cells are obtained by performing a series of repeated sub-cultures. Briefly the cells are seeded in 75 cm^2 flasks, at low density and cultured from 5 to 10 days between 2 passages. […] The cells are then maintained under these conditions for 45 days.
A study of the antiaging effect of the active principle was carried out by evaluating the expression of the beta-galactosidase protein on experimentally aged keratinocytes in culture.
Keratinocytes experimentally aged in 8-well labteck are cultured and maintained for 20 days in the presence or not of 1% peptide of SEQ ID No. 6. The treatment is carried out 3 times per week by direct addition into the medium.
Untreated cells are maintained in culture for the same experiment time and will be used as controls. On the day of labeling, the cells are rinsed and fixed in a 2% glutaraldehyde-2% formaldehyde mixture for 3 minutes. The cells are then rinsed and 300 μl of 5-bromo-4-chloro-3 indolyl b-D-galactosidase, commonly called X-gal (substrate of beta-galactosidase), is applied. Incubation is carried out for 24 hours in the CO2 incubator, and then the cells are rinsed and the labteck is quickly mounted in a suitable medium. Observation is carried out by transmission microscope. […]

Ki67 protein = assay: Ki67 proliferation marker immunolabelling on experimentally aged keratinocytes in culture; type: cell-based, human; conditions: 1% peptide in medium; keratinocytes aged 20 days in culture; immunofluorescence
Protocol: A study of the activator effect of peptide SEQ ID No. 2 was carried out by evaluating the expression of the cellular proliferation marker protein on experimentally aged keratinocytes in culture. The analysis is carried out after 20 days of culture.
The keratinocytes are cultured for 20 days in a CO2 incubator at 37° C. under humidified atmosphere. The cells are treated directly by adding 1% peptide directly into the medium. Cells that are not treated but aged in the same manner are used as control cells. For experimental requirements, the cells are seeded in 8-well labteck, maintained in culture and treated in the same support until the day of labeling. On the day of immunolabelling, the cells are rinsed by using phosphate buffer and then fixed with cold methanol before labeling.
Immunolabelling is carried out by a rabbit anti-Ki67 antibody (Abcam) diluted to 1/1000th and a secondary antibody to 1/1000th coupled with an Alexa fluor monkey anti-rabbit fluorochrome (Molecular probes).
The slides are then mounted in a suitable medium and observed by epifluorescence microscope (Nikon Eclipse E E600).

Substance | trypsin-like activity of 20S proteasome, increase (20S proteasome; substrate Boc-Leu-Arg-Arg-AMC, p=0.033) [%] | chymotrypsin-like activity of 20S proteasome, increase (20S proteasome; substrate Suc-Leu-Leu-Val-Tyr-AMC, p=0.0477) [%] | peptidylglutamyl-peptide hydrolase activity of 20S proteasome, increase (20S proteasome; substrate Z-Leu-Leu-Glu-AMC, p=0.00053) [%] | beta-galactosidase activity in treated cells compared to untreated cells (beta-galactosidase) | Ki67 protein expression in aged and treated cells compared to untreated cells (Ki67 protein)
Arg-Lys-Gly-NH2 [SEQ ID No. 6] | 155.3 | 130 | 144.6 | strongly reduced | 
Leu-Arg-Lys-Gly-Met-NH2 (LRKGM-NH2) [SEQ ID No. 2] |  |  |  |  | increased the Ki67 protein
